According to patent publication US20140296500, “Methods and Compositions of Nucleic Acid Ligands for Detection of Clinical Analytes Related to Human Health” (OTC BIOTECHNOLOGIES, LLC, published 2014):

T1: CTx 8-AA peptide (EKAHDGGR) (Homo sapiens, UniProt P02452 P02452:1207-1214)
T1 chain: EKAHDGGR


Legend:
[1] = molecular target: T1, CTx 8-AA peptide (EKAHDGGR); experiment: FRET beacon specificity; no response with 8-AA segment; conditions: label: 5'-TYE665, 3'-Iowa Black RQ
[2] = molecular target: Bovine serum albumin (BSA) (Bos taurus, UniProt P02769 P02769:25-607); experiment: FRET beacon; unexpected cross-reactivity with BSA; conditions: label: 5'-TYE665, 3'-Iowa Black RQ
Bovine serum albumin (BSA), sequence (P02769 25-607, one chain of several): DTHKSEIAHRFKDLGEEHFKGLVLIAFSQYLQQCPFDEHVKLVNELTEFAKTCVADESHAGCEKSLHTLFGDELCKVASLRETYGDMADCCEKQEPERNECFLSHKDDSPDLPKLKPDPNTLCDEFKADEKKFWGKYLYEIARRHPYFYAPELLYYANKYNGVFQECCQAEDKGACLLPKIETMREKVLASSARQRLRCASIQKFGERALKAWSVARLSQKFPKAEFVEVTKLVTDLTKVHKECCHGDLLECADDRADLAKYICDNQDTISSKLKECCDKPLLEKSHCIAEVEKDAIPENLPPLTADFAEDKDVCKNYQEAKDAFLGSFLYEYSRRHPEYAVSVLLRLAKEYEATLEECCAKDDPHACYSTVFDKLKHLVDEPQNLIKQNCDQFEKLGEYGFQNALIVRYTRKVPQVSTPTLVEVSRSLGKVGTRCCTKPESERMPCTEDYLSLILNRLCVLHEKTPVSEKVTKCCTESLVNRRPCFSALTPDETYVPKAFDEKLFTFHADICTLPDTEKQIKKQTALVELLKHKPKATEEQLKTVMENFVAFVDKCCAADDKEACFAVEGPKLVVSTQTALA

[3] = molecular target: T2, CTx peptide (C-telopeptide of human type I bone collagen, 26 AA …) (Homo sapiens, UniProt P02452 P02452:1193-1218); experiment: FRET beacon; LOD 1 ng/ml; 0.5 M NaCl, 10 mM Tris-HCl, 1 mM MgCl2, pH 7.5-7.6, RT; conditions: label: 5'-TYE665, 3'-Iowa Black RQ
T2 sequence (P02452 1193-1218, one chain of several): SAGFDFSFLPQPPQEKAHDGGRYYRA
Experimental: Generally, the aptamer beacons or competitive FRET-aptamer complexes are then diluted to a final concentration of 1-5 μg/ml in 1×BB and equally dispensed to polystyrene or methacrylate cuvettes in which 1 ml of unlabeled target at various concentrations in 1×BB, PBS or diluted blood, plasma, serum, saliva, aspirate or urine has been added already. Cuvettes are gently mixed for 15 to 20 minutes at RT prior to reading their fluorescence in the homogeneous beacon or competitive-displacement FRET assay formats using a spectrofluorometer having gratings to vary the excitation wavelength and emission scanning ability or a stationary, handheld or otherwise portable fluorometer having a more restricted or fixed excitation and emission optical filter set with a range of wavelengths for excitation and emission.
FIGS. 3A-3F show how each of the aptamer beacons derived and defined from FIG. 2 behaved as a function of decreasing CTx peptide concentration (serial two-fold dilutions beginning with 100 micrograms per ml and ending with zero CTx peptide) in 1× binding buffer (1×BB; 0.5 M NaCl, 10 mM Tris-HCl, pH 7.5-7.6, 1 mM MgCl₂). In the figures “h” means hour or O'clock so that 2 h refers to the 2 O'clock loop from FIG. 2, while F means forward-primed and R means reverse-primed by reference to FIG. 2 as well. […]

[4] = molecular target: T2, CTx peptide (C-telopeptide of human …); experiment: FRET beacon; almost as good as 15-base version, slightly higher background; conditions: label: 5'-TYE665, 3'-Iowa Black RQ
Experimental: Cuvettes are gently mixed for 15 to 20 minutes at RT prior to reading their fluorescence in the homogeneous beacon or competitive-displacement FRET assay formats using a spectrofluorometer having gratings to vary the excitation wavelength and emission scanning ability or a stationary, handheld or otherwise portable fluorometer having a more restricted or fixed excitation and emission optical filter set with a range of wavelengths for excitation and emission.
FIGS. 3A-3F show how each of the aptamer beacons derived and defined from FIG. 2 behaved as a function of decreasing CTx peptide concentration (serial two-fold dilutions beginning with 100 micrograms per ml and ending with zero CTx peptide) in 1× binding buffer (1×BB; 0.5 M NaCl, 10 mM Tris-HCl, pH 7.5-7.6, 1 mM MgCl₂). In the figures “h” means hour or O'clock so that 2 h refers to the 2 O'clock loop from FIG. 2, while F means forward-primed and R means reverse-primed by reference to FIG. 2 as well. […] The CTx 2R-2h loop was optimal for FRET-based detection because it gives the greatest spread or separation for various two-fold serial dilutions of the 26-AA CTx peptide beginning at 100 μg/ml. The CTx 2F-10 h loop was also noteworthy, but could not discriminate many of the different CTx concentrations. […]

[5] = molecular target: T3, Recombinant human growth hormone (r-hGH) (Homo sapiens, UniProt P01241 P01241:27-217); experiment: ELONA; binds r-hGH better than natural hGH; conditions: tags: >95% pure research grade; label: 5'-biotin
T3 sequence (P01241 27-217, one chain of several): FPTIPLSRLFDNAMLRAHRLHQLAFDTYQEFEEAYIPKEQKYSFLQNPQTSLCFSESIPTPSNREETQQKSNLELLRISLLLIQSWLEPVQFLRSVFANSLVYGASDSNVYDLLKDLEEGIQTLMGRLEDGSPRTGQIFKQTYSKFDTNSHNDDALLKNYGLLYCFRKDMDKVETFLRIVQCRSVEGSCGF
Experimental: FIGS. 16A-16D show four more examples of aptamers (from the SEQ ID NOs 325-526) that bind recombinant human growth hormone (“r-hGH”) better than the natural form of hGH or somatotropin to help discriminate the artificial form in potential drug or doping tests for atheletes and growth-challenged children. The ELISA-like assays were conducted with the named aptamers (SEQ ID NOs 348, 377, 379 and 388) instead of antibodies in each case and absorbances were red at 405 nm with an automated microplate reader after a 15 minute development time in the presence of ABTS substrate as is standard in the diagnostics industry.

[6] = molecular target: T3, Recombinant human growth hormone (r-hGH); experiment: ELONA; binds r-hGH better than natural hGH; conditions: tags: >95% pure research grade; label: 5'-biotin; remark: listed apart in the source
Experimental: FIGS. 15A-15D show four examples of aptamers from the SEQ ID NOs 325-526 that bind recombinant human growth hormone (r-hGH; >95% pure research grade) better than the natural form of hGH or somatotropin in ELISA-like assays to help discriminate the artificial form of hGH in potential drug or doping tests for athletes, or to monitor serum levels of exogendus doses of r-hGH administered to children with growth deficits. The ELISA-like assays were conducted with the named aptamers (SEQ ID NOs 336, 338, 343 and 345) instead of antibodies in each case and absorbances were red at 405 nm with an automated microplate reader after a 15 minute development time in the presence of ABTS substrate as is standard in the diagnostics industry.

Row | Binder | binding result [5] | binding result [6] | further results
1 | GGTGGTGTTGGCTCC (ssDNA) [CTx 2R-2h 15-base beacon] | – | – | binding result [1]: no binding; binding result [2]: binds; binding result [3]: binds
2 | GTGGTGTTGGCTC (ssDNA) [CTx 2R-2h 13-base beacon] | – | – | binding result [4]: binds
3 | hGH aptamer SEQ 377 (ssDNA) DNA: ATACGGGAGCCAACACCACATGACGGGTGACTAAAAGACGAAATCTCCCAATTAAGAGCAGGTGTGACGGAT | binds | – | –
4 | hGH aptamer SEQ 379 (ssDNA) DNA: ATACGGGAGCCAACACCACCTGAGCGCCGGCAGCACTCACTATTTGTCCCCGCAAGAGCAGGTGTGACGGAT | binds | – | –
5 | hGH aptamer SEQ 388 (ssDNA) DNA: ATCCGTCACACCTGCTCTAAAACATGGGCCCAATTAGGCGTGATCCAACCCGTCTGGTGTTGGCTCCCGTAT | binds | – | –
6 | hGH aptamer SEQ 336 (ssDNA) DNA: ATCCGTCACACCTGCTCTGGGGTGTATCCTTTTATGGATCTGCGAGAATAAGTCTGGTGTTGGCTCCCGTAT | – | binds | –
7 | hGH aptamer SEQ 338 (ssDNA) DNA: ATCCGTCACACCTGCTCTTGGGTGAATCAATTGTTCGTACTCCACGTGATTCTGTGGTGTTGGCTCCCGTAT | – | binds | –
8 | hGH aptamer SEQ 343 (ssDNA) DNA: ATACGGGAGCCAACACCATAAGCAGAGAACTACAAGACGATCCCATATTCCAAAGAGCAGGTGTGACGGAT | – | binds | –
9 | hGH aptamer SEQ 345 (ssDNA) DNA: ATACGGGAGCCAACACCAGGTTGGCGTCAAAAGAAATAAGGGATATACATTAGAGAGCAGGTGTGACGGAT | – | binds | –
10 | hGH aptamer SEQ 348 (ssDNA) DNA: ATCCGTCACACCTGCTCTAGGATTTTTGTTATGTCGGCCACGATGGGGACCCCGTGGTGTTGGCTCCCGTAT | binds | – | –
